B1: TPR t1 (parent)
chain: GACCAAUCUGCCCUCAGAGCUCGAGAACAUCUUCGGAUGCAGAGGAGGCAGGCUUCGGUGGCGCGAUAGCGCCAACGUCCUCAACCUCCAAUGCAUCCCACCACAUGAUGAUGCCUGAAGAGCCUUGGUUUUUUG

Variants of: B1
Assay: polymerase ribozyme fitness, log enrichment relative to wild type (log ratio); higher = more active; in vitro selection for triplet polymerase activity
Outline: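 Fitness measures genotype enrichment against wild-type enrichment on a logarithmic scale, with inverse-variance-weighted averaging of replicates. The logarithm is base 2, and genotypes were kept only with ≥10 input reads and ≥1 read per output in Illumina sequencing. The sequenced libraries came from one triplicate in vitro selection round, including frozen incubation at −7 °C, of PCR-built, transcribed mutant libraries of each subunit of a heterodimeric triplet polymerase ribozyme.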

Variant	polymerase ribozyme fitness (log ratio)
G52A A68G	-3.34
C8U U87C C102U U112A G122A	-0.31
C11A C72G A111U	-6.18
C11G G36U G47U G63A U78G	-2.93
A5U G71C C102G C114G C115G	-6.55
A66G C72U C80U C123A	-3.12
C22G G110U U112G	-7.26
G36U C79A	-3.02
A27U U78C U81A C94U	-4.92
C94A U112G C124G	0.054
C49U G60A C82U U106A G120C G135A	0.366
G60U C82U G110U	-1.72
G60A U112G G120A	-2.56
G47C C56U	-1.01
G48C C64U	-1.12
U14C G93A G120C	-1.52
G58U U81A C124A	1.33
G42U G93A	-2.14
G65A C79U	-3.57
U21C U38A C73A C123A	-1.55
C20U C34U	-5.22

Variant	polymerase ribozyme fitness (log ratio)
C73U C102A	-1.58
C28U C82A	-2.3
G10A C73U A84U G110U	-2.38
U38G G47U	-3.26
U7A C8U G61U	0.322
A83C A111U	-3.57
C34A C97G	-4.18
C12U C34G C115G	-6.11
G47U G51A A121G G128U	-3.97
C40G C56U C70A G77A C88U A103U A119G	-7.04
U9G G63C G71U C79A	-5.4
C31U A119G	-3.71
G60A U78C C97G	-4.55
U9C C11U C101A	-0.843
A5G C15U C70U C101U C124U	-0.0911
A29C C56G C82A U87C C89A A108G C124A	-7.12
C15U A16U G23A G63A G93C C114G	-7.78
C8G G52U G60A U96G	-0.693
A2U C20U	-3.71
C49U G61C G71A A95G G113U	-7.48
A6U G19C C82U C94A A111C	-4.5

Variant	polymerase ribozyme fitness (log ratio)
C12U C13U A43G G61A U130G	-2.17
A18U U21C G36A C72U C114U	-4.3
A66C G113C G120U	-5.98
C8U G45A	0.126
U9G C20A U59A	-3.12
U78C U126C U129C	-2.29
A74U U130G	-0.154
G63A A75G G122A G127U	-3.17
C4A C11G	-1.18
A18U U54G C114U	-4.87
G39U G61U C73U U106A	-1.81
G36A U55G G120C	0.249
G17C C49A C82U C114U	-5.49
U38G C49A G77U C85G C115A	-3.84
C11A A50G U126A	-3.95
G71A U81G G113A C123U	-6.93
A18U C20U A50C G69U	-1.33
U87A A118G	0.111
C20U G44U G93A	-3.1
A2C C12G G42U C49A C73A C82U A111C	-5.3
C12A U112C	0.835

Variant	polymerase ribozyme fitness (log ratio)
C62U G69C	-3.19
G10C C11A	-1.06
A5C A84G	-1.64
U87G A103C	-5.65
A43C U87A U106A	-2.43
C15A C53A C72G A103C G113A G117A	-6.79
C8U C123A	0.745
A2G A91U	-1.93
G61U C70U	-2.03
G47C C62U C88U	-1.75
U38C C56U	-0.488
G23A C82G	-5.43
G10U G77A G93U U129C	-2.07
C13G G17C A75U U87G U96A C104U	-5.5
A5U C56G C114U	-4.21
U7G C12U C15A C22G C62U C80U C86U U96C G113C	-6.05
C70A C88A C89U	-5.58
U7C C31A A119G U133A	-6.12
C15G G120A	-1.53
C53A G71U G128C	-2.77
A27C C28G	-4
